Results as given in patent US20160237157A1 (published 2016).

Columns and labels:
[1] = molecular target: human FGFR4 expressed at the cell surface (human, UniProt P22455 22-802); assay: cell-based or functional assay
[2] = molecular target: T1, human FGFR4 (soluble, Part B: SPR and FGFR4 ELISA) (human, UniProt P22455 22-369); assay: surface plasmon resonance, compared with chLD1
T1 construct: Injected over immobilized IgG in SPR (0.48-1000 nM) and immobilized in the FGFR4 ELISA
T1 sequence: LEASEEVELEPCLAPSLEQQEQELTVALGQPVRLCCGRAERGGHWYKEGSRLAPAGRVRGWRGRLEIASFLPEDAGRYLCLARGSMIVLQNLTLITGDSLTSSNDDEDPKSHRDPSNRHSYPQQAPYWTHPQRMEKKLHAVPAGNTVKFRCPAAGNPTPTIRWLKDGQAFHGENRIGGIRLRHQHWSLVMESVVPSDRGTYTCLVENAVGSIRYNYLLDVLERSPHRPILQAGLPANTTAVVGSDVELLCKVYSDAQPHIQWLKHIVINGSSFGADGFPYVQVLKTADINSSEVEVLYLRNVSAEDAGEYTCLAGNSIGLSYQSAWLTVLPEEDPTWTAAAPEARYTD

B1: chimeric LD1 (chLD1) (antibody, V domains shown)
VH: EVQLQQPGAVLVRPGTSVKLSCKASGYTFTNHWMNWVKQRPGQGLEWIGMIHPSDSETTLDQKFKDKATLTVDKSSSTAYMQLNRPTSEDSAVYYCTRGDISLFDYWGQGTTVTVSS
VL: DIQMTQTTSSLSASLGDRVTITCRTSQDISNFLNWYQQKPDGTFKILISYTSRLHSGVPSRFSGSGSGTDYSLTISTLEQEDFATYFCQQGNALPYTFGGGTKLEIE
For B1, the “CYP7α1 expression in HEP3B cells without added FGF19, fold increase” value [1] was 2 fold, the “CYP7α1 expression in HUH7 cells in the absence of FGF19, fold increase” value [1] was 3.5 fold and the “CYP7α1 expression in HUH7 cells in the presence of FGF19, fold increase” value [1] was 2.9 fold.

B2: hLD1.vA (antibody, V domains shown)
VH: EVQLVESGGGLVQPGGSLRLSCAASGYTFTNHWMNWVRQAPGKGLEWVGMIHPSDSETTLDQKFKDRFTISADTSKNTAYLQMNSLRAEDTAVYYCTRGDISLFDYWGQGTLVTVSS
VL: DIQMTQSPSSLSASVGDRVTITCRTSQDISNFLNWYQQKPGKAPKLLIYYTSRLHSGVPSRFSGSGSGTDFTLTISSLQPEDFATYYCQQGNALPYTFGQGTKVEIKR
B2 was tested, and the “fold decrease of affinity against chLD1” value [2] was ~5 fold.
